Data taken from patent US20180142261A1.

Target: mouse CD4 (mouse) (UniProt P06332)
Assay: flow cytometry, primary C57BL/6 splenocytes ex vivo, siCy5 signal (FIG. 4B)

UniProt P06332, sequence (P06332 27-457): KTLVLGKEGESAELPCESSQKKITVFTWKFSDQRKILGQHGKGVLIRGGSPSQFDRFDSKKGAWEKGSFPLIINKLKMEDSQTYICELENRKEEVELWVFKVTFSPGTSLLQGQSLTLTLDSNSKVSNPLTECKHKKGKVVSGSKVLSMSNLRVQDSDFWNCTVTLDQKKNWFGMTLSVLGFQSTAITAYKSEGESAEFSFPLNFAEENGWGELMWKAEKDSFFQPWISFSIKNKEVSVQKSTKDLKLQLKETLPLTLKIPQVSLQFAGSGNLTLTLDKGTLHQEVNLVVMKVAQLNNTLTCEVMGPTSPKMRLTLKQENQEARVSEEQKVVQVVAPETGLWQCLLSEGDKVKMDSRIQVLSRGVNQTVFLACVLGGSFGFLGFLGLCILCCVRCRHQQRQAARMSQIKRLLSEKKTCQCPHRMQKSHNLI

Row | percent of CD4+ cells that bind [%] | Substance
1 | 1 | isoLNPs: lipid nanoparticles coated with an isotype control mAb (antibody)
2 | 100 | tLNPs: lipid nanoparticles (siRNA-encapsulating) conjugated to DTT-reduced anti-mouse CD4 monoclonal antibody (clone YTS.177)
